In the Immune Epitope Database (IEDB):

Tests used:
HLA-A*01:01 [1] = assay: IEDB peptide-MHC binding, purified MHC/direct/fluorescence; filed as Kd, often an IC50 or EC50 that approximates it; ≥ and ≤ were set here for values at or beyond the usual limits of such assays
HLA-A*02:01 [2] = assay: as above
HLA-A*03:01 = assay: as above
HLA-A*11:01 = assay: as above
HLA-A*24:03 = assay: as above; conditions: source organism: Shigella flexneri
HLA-A*26:01 = assay: as above
HLA-A*30:01 = assay: as above; conditions: source organism: Escherichia coli O6
HLA-A*31:01 = assay: as above
HLA-A*69:01 = assay: as above
HLA-B*07:02 = assay: as above
HLA-B*08:01 [3] = assay: as above
HLA-B*15:01 [4] = assay: as above
HLA-B*27:05 = assay: as above
HLA-B*40:01 = assay: as above
HLA-B*44:02 = assay: as above
HLA-B*58:01 = assay: as above; conditions: source organism: Escherichia coli O6
HLA-A*01:01 [5] = assay: IEDB peptide-MHC binding, purified MHC/competitive/fluorescence; ≥ and ≤ were set here for values at or beyond the usual limits of such assays; conditions: source organism: Vaccinia virus Copenhagen
HLA-A*02:01 [6] = assay: as above; conditions: source organism: Vaccinia virus Copenhagen
HLA-A*24:02 = assay: as above; conditions: source organism: Vaccinia virus Copenhagen
HLA-B*15:01 [7] = assay: as above; conditions: source organism: Vaccinia virus Copenhagen
HLA-B*35:01 = assay: IEDB peptide-MHC binding, purified MHC/direct/fluorescence; filed as Kd, often an IC50 or EC50 that approximates it; ≥ and ≤ were set here for values at or beyond the usual limits of such assays; conditions: source organism: Escherichia coli O157:H7
HLA-B*08:01 [8] = assay: IEDB peptide-MHC binding, purified MHC/competitive/fluorescence; filed as Kd, often an IC50 or EC50 that approximates it; ≥ and ≤ were set here for values at or beyond the usual limits of such assays
[9] = source organism: Shigella flexneri
[10] = source organism: Escherichia coli O6
[11] = source organism: Escherichia coli O157:H7

With KTTLFHTFK the Kd (HLA-A*01:01 [1]; [9]) was at least 20 µM, the Kd (HLA-A*02:01 [2]; [9]) was at least 20 µM and the Kd (HLA-A*03:01; [10]) was 0.122 µM. For the same sequence, the Kd (HLA-A*11:01; [10]) was 0.0162 µM, the Kd (HLA-A*24:03) was at least 20 µM and the Kd (HLA-A*26:01; [9]) was at least 20 µM. It also gave a Kd (HLA-A*30:01) of 0.00609 µM, a Kd (HLA-A*31:01; [10]) of 0.0304 µM and a Kd (HLA-A*69:01; [9]) of at least 20 µM. It also gave a Kd (HLA-B*07:02; [9]) of at least 20 µM, a Kd (HLA-B*08:01 [3]; [9]) of at least 20 µM and a Kd (HLA-B*15:01 [4]; [9]) of at least 20 µM. It also gave a Kd (HLA-B*27:05; [9]) of at least 20 µM, a Kd (HLA-B*40:01; [9]) of at least 20 µM and a Kd (HLA-B*44:02; [9]) of at least 20 µM. For the same sequence, the Kd (HLA-B*58:01) was 9.38 µM.
With LSSQMTSTF the IC50 (HLA-A*01:01 [5]) was at least 129 µM, the IC50 (HLA-A*02:01 [6]) was at least 155 µM and the IC50 (HLA-A*24:02) was 0.788 µM. The IC50 (HLA-B*15:01 [7]) was 4.85 µM.
Work on IAIPAHVRL yielded a Kd (HLA-A*01:01 [1]; [11]) of at least 20 µM, a Kd (HLA-A*02:01 [2]; [11]) of at least 20 µM and a Kd (HLA-A*03:01; [11]) of at least 20 µM. The Kd (HLA-A*11:01; [11]) was at least 20 µM, the Kd (HLA-A*26:01; [11]) was at least 20 µM and the Kd (HLA-A*31:01; [11]) was at least 20 µM. It also gave a Kd (HLA-A*69:01; [11]) of 0.227 µM, a Kd (HLA-B*07:02; [11]) of 8.52 µM and a Kd (HLA-B*08:01 [3]; [11]) of 4.46 µM. It also gave a Kd (HLA-B*15:01 [4]; [11]) of 1.81 µM, a Kd (HLA-B*27:05; [11]) of at least 20 µM and a Kd (HLA-B*35:01) of 0.392 µM. It also gave a Kd (HLA-B*40:01; [11]) of at least 5 µM and a Kd (HLA-B*44:02; [11]) of at least 20 µM.
Work on LAARKARAA yielded a Kd (HLA-B*08:01 [8]; source organism: Escherichia coli) of 0.644 µM.
Sequence TLHFKQYEF has a Kd (HLA-B*08:01 [8]; source organism: Influenza A virus (A/Wyoming/3/2003-X-147(H3N2))) of 0.433 µM.
